The values that follow come from PMC6195255, “EBP1 nuclear accumulation negatively feeds back on FERONIA-mediated RALF1 signaling”.

This series has as its target T1, EBP1-GST (UniProt Q96327-3 1-401).
T1 sequence: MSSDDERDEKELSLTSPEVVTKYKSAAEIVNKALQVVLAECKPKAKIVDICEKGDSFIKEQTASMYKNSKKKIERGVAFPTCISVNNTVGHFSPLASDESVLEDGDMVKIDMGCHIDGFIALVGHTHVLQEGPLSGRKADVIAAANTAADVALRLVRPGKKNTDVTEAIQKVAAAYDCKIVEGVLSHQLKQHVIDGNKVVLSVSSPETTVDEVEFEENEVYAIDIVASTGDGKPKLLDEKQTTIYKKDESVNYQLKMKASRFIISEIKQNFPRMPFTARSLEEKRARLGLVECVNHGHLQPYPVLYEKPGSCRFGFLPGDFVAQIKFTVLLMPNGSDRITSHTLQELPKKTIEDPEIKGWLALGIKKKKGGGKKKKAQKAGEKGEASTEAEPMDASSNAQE
The experiment in a line: EMSA; 100 ng EBP1-GST, 100 pg probe; competition with unlabeled CCACGTC DNA; 10 mM Tris pH 7.5, 50 mM KCl, 1 mM MgCl2, 5% glycerol, 0.5 mM DTT, 0.2 mg/mL BSA, 0.5 mg/mL polyglutamate; room temperature 20 min; 6% native PAGE. Conditions: protein: recombinant; tags: GST; label: FITC; blunt. On the technique in general: In EMSA bound probe runs differently from free probe, usually more slowly.

B1: CML38 promoter CCACGTC probe (dsDNA)
DNA 1: AACACTAATCTACCACGTCTATTACACACA
DNA 2: TGTGTGTAATAGACGTGGTAGATTAGTGTT
Regarding B1, the binding result is listed as “binds”.
